Experimental data taken from patent publication US7622265B2, “Methods and compositions for modulating prostasin” (Genentech, Inc., priority 2005, dated 2009).
Residue numbers refer to the chain shown, from its start. Numbers in names are those of the source. Where no end group is shown, it is not given here.

B1: sHAI-1B K401A: KD2 mutant of sHAI-1B, P1 residue Lys401 (in KD2) changed to Ala (protein)
chain: GPPPAPPGLPAGADCLNSFTAGVPGFVLDTNASVSNGATFLESPTVRRGWDCVRACCTTQNCNLALVELQPDRGEDAIAACFLINCLYEQNFVCKFAPREGFINYLTREVYRSYRQLRTQGFGGSGIPKAWAGIDLKVQPQEPLVLKDVENTDWRLLRGDTDVRVERKDPNQVELWGLKEGTYLFQLTVTSSDHPEDTANVTVTVLSTKQTEDYCLASNKVGRCRGSFPRWYYDPTEQICKSFVYGGCLGNKNNYLREEECILACRGVQGGPLRGSSGAQATFPQGPSMERRHPVCSGTCQPTQFRCSNGCCIDSFLECDDTPNCPDASDEAACEKYTSGFDELQRIHFPSDKGHCVDLPDTGLCAESIPRWYYNPFSEHCARFTYGGCYGNKNNFEEEQQCLESCRGISKKDVFGLRREIPIPSTGSVE
B2: sHAI-1B R260A: KD1 mutant of sHAI-1B, P1 residue Arg260 (in KD1) changed to Ala (protein)
chain: B1 chain with R225A, A366K
B3: HAI-2: hepatocyte growth factor activator inhibitor-2, a bi-Kunitz type serine protease inhibitor (protein, UniProt O43291 28-252, looked up)
Kunitz-type protease …: ADRERSIHDFCLVSKVVGRCRASMPRWWYNVTDGSCQLFVYGGCDGNSNNYLTKEECLKKCATVTENATGDLATSRNAADSSVPSAPRRQDSEDHSSDMFNYEEYCTANAVTGPCRASFPRWYFDVERNSCNNFIYGGCRGNKNSYRSEEACMLRCFRQQENPPLPLGSKVVVLAGLFVMVLILFLGASMVYLIRVARRNQERALRTVWSSGDDKEQLVKNTYVL

Columns and labels:
prostasin [1] = molecular target: T1, prostasin (Homo sapiens, UniProt Q16651); assay: Enzyme inhibition assay (amidolytic activity of prostasin towards S2765); type: biochemical; set-up: made in house; host or cells: CHO cells (transient transfection, pRK5E); purified from conditioned medium on aprotinin-agarose; conditions: for inhibition of prostasin enzymatic activity (in words): substrate S2765
Protocol: The increase in absorbance at 405 nm was monitored on a kinetic microplate reader (Molecular Devices, Sunnyvale, Calif.). The linear rates of the increase in absorbance were expressed as percentage activities (100%×vi/v0). […] At least three independent experiments were performed for each inhibitor.
Target sequence in this assay (Q16651 45-322 limits assumed, other chains not shown): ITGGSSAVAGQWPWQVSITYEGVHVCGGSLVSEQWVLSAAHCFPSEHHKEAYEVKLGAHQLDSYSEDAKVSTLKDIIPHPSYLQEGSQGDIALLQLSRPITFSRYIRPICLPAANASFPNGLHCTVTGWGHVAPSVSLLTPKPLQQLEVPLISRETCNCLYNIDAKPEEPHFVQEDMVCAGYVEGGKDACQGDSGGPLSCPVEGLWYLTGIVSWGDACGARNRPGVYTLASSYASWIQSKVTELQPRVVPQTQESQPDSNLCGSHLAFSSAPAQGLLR

prostasin [2] = molecular target: T1, prostasin; assay: Prostasin binding assay (complex formation, immunoblotting); set-up: made in house; host or cells: CHO cells (transient transfection, pRK5E); purified from conditioned medium on aprotinin-agarose; conditions: 20 nM sHAI-1B, 37° C., 0.5 or 2 h, immunoblot with anti-HAI-1B polyclonal antibody
Protocol: Prostasin binding assay—Purified prostasin and sHAI-1B were diluted in 20 mM Tris-Cl, pH 9.0 containing 0.01% Triton X-100 (TT buffer) to the final concentration as indicated. The mixture was incubated at 37° C. for 0.5 h or 2 h and the reaction was stopped by addition of SDS sample buffer with DTT. 30 μl of each sample was analyzed by immunoblotting.
Prostasin and sHAI-1B form 1:1 complexes—Soluble prostasin was purified from conditioned medium of CHO cells transiently transfected with full-length prostasin. […] Prostasin was incubated with sHAI-1B comprising the entire extracellular domain of HAI-1B (Kirchhofer, Peek et al. 2003) at different molar ratios (FIG.2A). Increasing concentrations of prostasin shifted the sHAI-1B band (55 kDa) to the higher molecular mass species of 85 kDa, indicating the formation of prostasin:sHAI-1B complexes. At a 10-fold molar excess of prostasin, almost all sHAI-1B was bound to prostasin. Immunoblotting with anti-prostasin antibody confirmed that the 85 kDa band comprised complexes of sHAI-1B and prostasin (data not shown).
Target sequence in this assay (Q16651 45-322 limits assumed, other chains not shown): as above

prostasin [3] = molecular target: T1, prostasin; conditions: purified enzyme system; cited from earlier work
Target sequence in this assay (Q16651 33-343, species assumed): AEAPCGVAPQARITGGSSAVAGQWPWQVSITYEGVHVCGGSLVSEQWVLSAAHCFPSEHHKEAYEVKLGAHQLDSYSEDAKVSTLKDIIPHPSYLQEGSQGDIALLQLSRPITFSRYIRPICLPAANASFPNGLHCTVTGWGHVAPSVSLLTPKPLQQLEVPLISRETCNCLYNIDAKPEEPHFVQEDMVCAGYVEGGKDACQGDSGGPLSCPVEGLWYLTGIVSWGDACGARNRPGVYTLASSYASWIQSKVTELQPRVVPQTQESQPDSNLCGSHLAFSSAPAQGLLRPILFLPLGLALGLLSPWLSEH

Row | Molecule | inhibition of prostasin enzymatic activity (in words) (prostasin [1]; prostasin 3 nM) | IC50 (prostasin [1]; prostasin 3 nM, substrate S2765 0.05 mM, TT buffer, 20 min preincubation at room temperature, averages ± S.D. of at least three independent experiments, read-out: IC50 (nM), effects of inhibitors on the activity of prostasin) [nM] | complex formation with prostasin (prostasin [2]) | fold less potent than wildtype sHAI-1B (prostasin [1]; IC50 compared with wildtype sHAI-1B) | inhibition of prostasin activity (in words) (prostasin [3])
1 | APPI: Alzheimer's amyloid β protein precursor inhibitor, a Kunitz domain (VREVCSEQAETGPCRAMISRWYFDVTEGKCAPFFYGGCGGNRNNFDTEEYCMAVCGSA; ends and bridges not checked; cysteine pairing not given here) [reference compound] | did not inhibit prostasin | > 1000 | – | – | –
2 | B1 | inhibitory potency comparable to the wildtype | – | still formed an 85 kDa complex with prostasin | – | –
3 | B2 | – | – | did not | at least 18 fold | –
4 | B3 | – | – | – | – | potently inhibit prostasin activity
